# B1: MYC-SCOC (isoform 3) WT [human] / GFP-GABARAP [not stated] (parent complex)
# chain 1: MDGSRKEEEEDSTFTNISLADDIDHSSRILYPRPKSLLPKMMNADMDVDAENQVELEEKTRLINQVLELQHTLEDLSARVDAVKEENLKLKSENQVLGQYIENLMSASSVFQTTDTKSKRK
# chain 2: MKFVYKEEHPFEKRRSEGEKIRKKYPDRVPVIVEKAPKARIGDLDKKKYLVPSDLTVGQFYFLIRKRIHLRAEDALFFFVNNVIPPTSATMGQLYQEHHEEDFFLYIAYSDESVYGL
# Variants of: B1
# Experiment: GFP-Trap immunoprecipitation, Western blot quantification; HEK293A lysates mixed prior to IP; mean ± s.d.; n = 3; read off a plot
row,Variant,response
1,"chain 1 S12E, chain 1 T13E, chain 1 T15E, chain 1 S18E",~100 % binding
2,chain 1 S18E,~18 % binding
3,"chain 1 S12E, chain 1 T15E",~63 % binding
